The target of data set [1] is T1, PET28-NgAP2a (Nannochloropsis gaditana, UniProt W7TGT1 140-326).
T1 sequence: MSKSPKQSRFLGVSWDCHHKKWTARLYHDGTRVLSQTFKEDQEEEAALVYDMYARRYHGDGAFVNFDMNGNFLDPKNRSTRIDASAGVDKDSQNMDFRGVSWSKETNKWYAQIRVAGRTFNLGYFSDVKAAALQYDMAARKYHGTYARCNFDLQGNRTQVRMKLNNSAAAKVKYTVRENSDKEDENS
Description: EMSA; Beyotime Chemiluminescent EMSA Kit GS009 per manual; buffer, salt, pH and temperature not stated. The settings on record: protein: recombinant; label: 3' biotin; blunt. (In general: A gel shift assay detects complexes by their altered migration in electrophoresis.)

Data set [2] concerns the target T1, PET28-NgAP2a. As to the kind of experiment: competition; 100x unlabeled vs biotin M5 probe; Beyotime Chemiluminescent EMSA Kit GS009 per manual; buffer, salt, pH and temperature not stated. The settings on record: protein: recombinant; label: none (unlabeled); blunt.

Positions count from the first letter of the chain named.

B1: M3 probe (EMSA3) (dsDNA)
DNA 1: GGCGTTGCCACTTGGGCAAAGAAAAGCTGG
DNA 2: CCAGCTTTTCTTTGCCCAAGTGGCAACGCC
With B1, in the data set with PET28-NgAP2a [1], the binding result is “no binding”.

B2: M5 probe (EMSA5) (dsDNA)
DNA 1: CTCATTCCCATACCGCAAGTACCTGACCCTGTA
DNA 2: TACAGGGTCAGGTACTTGCGGTATGGGAATGAG
On to B2, for which, in the data set with PET28-NgAP2a [1], the binding result is listed as “binds”.

B3: unlabeled M5 competitor (dsDNA)
DNA 1: B2 DNA 1
DNA 2: B2 DNA 2
Take B3: the binding result with PET28-NgAP2a [2] is “binds”.

B4: mutant M5 competitor (mu_EMSA5) (dsDNA)
DNA 1: B2 DNA 1 with C13A, C14A, G15A
DNA 2: B2 DNA 2 with C19T, G20T, G21T
With B4, the binding result with PET28-NgAP2a [2] is reported as “no binding”.

The record behind these values is PMC11477109, “NgAP2a Targets KCS Gene to Promote Lipid Accumulation in Nannochloropsis gaditana”.
